Data set [1] has as its target Arabidopsis thaliana aspartyl aminopeptidase 2, mature (without transit peptide), with N-terminal His6 (His6-DAP2) (Arabidopsis thaliana). The experiment in a line: native gel or EMSA; series of native polyacrylamide gels (4, 4.5, 5 and 6% acrylamide) of Ni-NTA-purified His6-DAPs; masses from relative mobilities and retardation coefficients (Hedrick and Smith; Bryan), BSA and urease as mass standards.

Substrate in data set [2]: N[C@@H](CC(=O)O)C(=O)Nc1ccc([N+](=O)[O-])cc1
The experiment in a line: purified protein. The data set is classed as biochemical, Arabidopsis thaliana. The following applies: 50 mM Tris-HCl pH 8.0, enzyme pre-activated with 0.5 mM MnCl2.

Data set [3] concerns the molecule itself. As to the kind of experiment: native gel or EMSA; series of native polyacrylamide gels (4, 4.5, 5 and 6% acrylamide) of Ni-NTA-purified His6-DAPs; masses from relative mobilities and retardation coefficients (Hedrick and Smith; Bryan), BSA and urease as mass standards.

3 molecules from PMC5638241, “Chlorophyte aspartyl aminopeptidases: Ancient origins, expanded families, new locations, and secondary functions” (PLoS ONE, 2017) can be followed below.

In general, stoichiometry N refers to the number of molecules, sites or subunits per partner or assembly. In data set [1], “Arabidopsis thaliana aspartyl aminopeptidase 2, mature (without transit peptide), with N-terminal His6 (His6-DAP2) (enzyme)” came in with a stoichiometry N of 12.

B1: Arabidopsis thaliana aspartyl aminopeptidase 1 with N-terminal His6 (His6-DAP1) (enzyme, UniProt Q9LST0 1-477, looked up)
chain: MDKSSLVSDFLSFLNASPTAFHAVDESKRRLLKAGYEQISERDDWKLEAGKKYFFTRNYSTIVAFAIGHKYVAGNGFHIIGAHTDSPCLKLKPVSKITKGGCLEVGVQTYGGGLWYTWFDRDLTVAGRVILKEEKAGSVSYSHRLVRIEDPIMRIPTLAIHLDRNVNTEGFKPNTQTHLVPVLATAIKAELNKTPAESGEHDEGKKCAETSSKSKHHPLLMEIIANALGCKPEEICDFELQACDTQPSILAGAAKEFIFSGRLDNLCMSFCSLKALIDATSSGSDLEDESGIRMVALFDHEEVGSNSAQGAGSPVMIDAMSHITSCFSSDTKVLKKAIQKSLLVSADMAHALHPNFMDKHEENHQPKMHGGLVIKHNANQRYATNAVTSFVFREIAEKHNLPVQDFVVRNDMGCGSTIGPILASSVGIRTVDVGAPQLSMHSIREMCAADDVKHSYEHFKAFFQEFTHLDAKLTIDV
notes: AtDAP1 (At5g60160), M18 aspartyl aminopeptidase of Arabidopsis thaliana ecotype Columbia; entire coding region of the DAP1 cDNA (nucleotides 86 to 1519 of NM_125409) cloned into pET28; Monomer 54.6 kDa as printed; also called AtDAP1; At5g60160; source: E. coli BL21[DE3]pLys, purified (Ni-NTA, 100-kDa MWCO Centricon); not shown: His6, N-terminal, kept; copies: 12
As a reminder, the Km is the substrate concentration at which the rate is half of its maximum. Regarding B1, the Km in data set [2] is 1250 µM. In addition, the “stoichiometry N” value in data set [3] is 12.

B2: His6-DAP2 (mature AtDAP2) (Arabidopsis thaliana) (protein)
chain: ASIVGDLLDYLNESWTQFHATAEAKRQLLAAGFDLLSENEDWNLKPGGRYFFTRNMSCLVAFAVGEKYVPGNGFHAIAAHTDSPCLKLKPKSASSKSGYLMVNVQTYGGGLWHTWFDRDLSVAGRAIVRASDGSFVHRLVKVKRPLLRVPTLAIHLDRTVNSDGFKPNLETQLVPLLATKSDESSAESKDKNVSSKDAHHPLLMQILSDDLDCKVEDIVSLELNICDTQPSCLGGANNEFIFSGRLDNLASSFCALRALIDSCESSENLSTEHDIRMIALFDNEEVGSDSCQGAGAPTMFQAMRRIVSSLGNKQVTECTFDRAIRKSFLVSADMAHGVHPNFADKHEENHRPQLHKGLVIKHNANQRYATSGITSFLFKEVAKLHDLPIQEFVVRNDMGCGSTIGPILASGVGIRTVDCGIAQLSMHSVREICGTDDIDIAYRHFKAFYRSFSSVDKKLVVDD
notes: mature form without 63-residue transit peptide, N-terminal His6 fusion (pET28), E. coli BL21(DE3)pLysS, Ni-NTA; no tag removal mentioned
What is called kcat/Km is the second-order rate constant that governs catalysis at low substrate concentration. With B2, in data set [2], the Km is 210 µM and the catalytic efficiency (kcat/Km) was 3.47e+07 M⁻¹ s⁻¹.
